What was measured:
CD46 [1] = target: T1, CD46 (human, UniProt P15529); test: cell-based or functional assay
CD46 [2] = target: T1, CD46; test: cell-based or functional assay; remark: listed apart in the source

Row | Binder | titer [t.u./ml] of HIV-1 vector particles on HT1080 cells, not concentrated supernatant (CD46 [1]) [t.u./ml] | titer [t.u./ml] of HIV-1 vector particles on 293T cells, concentrated supernatant (CD46 [2]) [t.u./ml] | titer [t.u./ml] of HIV-1 vector particles on U-87MG cells, concentrated supernatant (CD46 [2]) [t.u./ml]
1 | HcΔ24 (other) MNREHLMIDRPYVLLAVLFVMFLSLIGLLAIAGIRLHRAAIYTAEIHKSLSTNLDVTNSIEHQVKDVLTPLFKIIGDEVGLRTPQRFTDLVKFISDKIKFLNPDREYDFRDLTWCINPPERIKLDYDQYCADVAAEELMNALVNSTLLETRTTNQFLAVSKGNCSGPTTIRGQFSNMSLSLLDLYLGRGYNVSSIVTMTSQGMYGGTYLVEKPNLSSKRSELSQLSMYRVFEVGVIRNPGLGAPVFHMTNYLEQPVSNDLSNCMVALGELKLAALCHGEDSITIPYQGSGKGVSFQLVKLGVWKSPTDMQSWVPLSTDDPVIDRLYLSSHRGVIADNQAKWAVPTTRTDDKLRMETCFQQACKGKIQALCENPEWAPLKDNRIPSYGVLSVDLSLTVELKIKIASGFGPLITHGSGMDLYKSNHNNVYWLTIPPMKNLALGVINTLEWIPRFKVSPYLFTVPIKEAGGDCHAPTYLPAEVDGDVKLSSNLVILPGQDLQYVLATYDTSRVEHAVVYYVYSPSRSFSYFYPFRLPIKGVPIELQVECFTWDQKLWCRHFCVLADSESGGHITHSGMVGMGVSCTVTREDGTNRR | 88 |  | 
2 | HcΔ14 (other) MPHPKGSRIVINREHLMIDRPYVLLAVLFVMFLSLIGLLAIAGIRLHRAAIYTAEIHKSLSTNLDVTNSIEHQVKDVLTPLFKIIGDEVGLRTPQRFTDLVKFISDKIKFLNPDREYDFRDLTWCINPPERIKLDYDQYCADVAAEELMNALVNSTLLETRTTNQFLAVSKGNCSGPTTIRGQFSNMSLSLLDLYLGRGYNVSSIVTMTSQGMYGGTYLVEKPNLSSKRSELSQLSMYRVFEVGVIRNPGLGAPVFHMTNYLEQPVSNDLSNCMVALGELKLAALCHGEDSITIPYQGSGKGVSFQLVKLGVWKSPTDMQSWVPLSTDDPVIDRLYLSSHRGVIADNQAKWAVPTTRTDDKLRMETCFQQACKGKIQALCENPEWAPLKDNRIPSYGVLSVDLSLTVELKIKIASGFGPLITHGSGMDLYKSNHNNVYWLTIPPMKNLALGVINTLEWIPRFKVSPYLFTVPIKEAGGDCHAPTYLPAEVDGDVKLSSNLVILPGQDLQYVLATYDTSRVEHAVVYYVYSPSRSFSYFYPFRLPIKGVPIELQVECFTWDQKLWCRHFCVLADSESGGHITHSGMVGMGVSCTVTREDGTNRR |  | 2900 | 3420
3 | HcΔ24+4A (other) MAAAANREHLMIDRPYVLLAVLFVMFLSLIGLLAIAGIRLHRAAIYTAEIHKSLSTNLDVTNSIEHQVKDVLTPLFKIIGDEVGLRTPQRFTDLVKFISDKIKFLNPDREYDFRDLTWCINPPERIKLDYDQYCADVAAEELMNALVNSTLLETRTTNQFLAVSKGNCSGPTTIRGQFSNMSLSLLDLYLGRGYNVSSIVTMTSQGMYGGTYLVEKPNLSSKRSELSQLSMYRVFEVGVIRNPGLGAPVFHMTNYLEQPVSNDLSNCMVALGELKLAALCHGEDSITIPYQGSGKGVSFQLVKLGVWKSPTDMQSWVPLSTDDPVIDRLYLSSHRGVIADNQAKWAVPTTRTDDKLRMETCFQQACKGKIQALCENPEWAPLKDNRIPSYGVLSVDLSLTVELKIKIASGFGPLITHGSGMDLYKSNHNNVYWLTIPPMKNLALGVINTLEWIPRFKVSPYLFTVPIKEAGGDCHAPTYLPAEVDGDVKLSSNLVILPGQDLQYVLATYDTSRVEHAVVYYVYSPSRSFSYFYPFRLPIKGVPIELQVECFTWDQKLWCRHFCVLADSESGGHITHSGMVGMGVSCTVTREDGTNRR |  | 1.6e+06 | ≥ 1e+06
4 | HcΔ19 (other) MSRIVINREHLMIDRPYVLLAVLFVMFLSLIGLLAIAGIRLHRAAIYTAEIHKSLSTNLDVTNSIEHQVKDVLTPLFKIIGDEVGLRTPQRFTDLVKFISDKIKFLNPDREYDFRDLTWCINPPERIKLDYDQYCADVAAEELMNALVNSTLLETRTTNQFLAVSKGNCSGPTTIRGQFSNMSLSLLDLYLGRGYNVSSIVTMTSQGMYGGTYLVEKPNLSSKRSELSQLSMYRVFEVGVIRNPGLGAPVFHMTNYLEQPVSNDLSNCMVALGELKLAALCHGEDSITIPYQGSGKGVSFQLVKLGVWKSPTDMQSWVPLSTDDPVIDRLYLSSHRGVIADNQAKWAVPTTRTDDKLRMETCFQQACKGKIQALCENPEWAPLKDNRIPSYGVLSVDLSLTVELKIKIASGFGPLITHGSGMDLYKSNHNNVYWLTIPPMKNLALGVINTLEWIPRFKVSPYLFTVPIKEAGGDCHAPTYLPAEVDGDVKLSSNLVILPGQDLQYVLATYDTSRVEHAVVYYVYSPSRSFSYFYPFRLPIKGVPIELQVECFTWDQKLWCRHFCVLADSESGGHITHSGMVGMGVSCTVTREDGTNRR |  | 200000 | ≥ 1e+06
5 | HcΔ22 (other) MVINREHLMIDRPYVLLAVLFVMFLSLIGLLAIAGIRLHRAAIYTAEIHKSLSTNLDVTNSIEHQVKDVLTPLFKIIGDEVGLRTPQRFTDLVKFISDKIKFLNPDREYDFRDLTWCINPPERIKLDYDQYCADVAAEELMNALVNSTLLETRTTNQFLAVSKGNCSGPTTIRGQFSNMSLSLLDLYLGRGYNVSSIVTMTSQGMYGGTYLVEKPNLSSKRSELSQLSMYRVFEVGVIRNPGLGAPVFHMTNYLEQPVSNDLSNCMVALGELKLAALCHGEDSITIPYQGSGKGVSFQLVKLGVWKSPTDMQSWVPLSTDDPVIDRLYLSSHRGVIADNQAKWAVPTTRTDDKLRMETCFQQACKGKIQALCENPEWAPLKDNRIPSYGVLSVDLSLTVELKIKIASGFGPLITHGSGMDLYKSNHNNVYWLTIPPMKNLALGVINTLEWIPRFKVSPYLFTVPIKEAGGDCHAPTYLPAEVDGDVKLSSNLVILPGQDLQYVLATYDTSRVEHAVVYYVYSPSRSFSYFYPFRLPIKGVPIELQVECFTWDQKLWCRHFCVLADSESGGHITHSGMVGMGVSCTVTREDGTNRR | 140 |  | 
6 | HcΔ23 (other) MINREHLMIDRPYVLLAVLFVMFLSLIGLLAIAGIRLHRAAIYTAEIHKSLSTNLDVTNSIEHQVKDVLTPLFKIIGDEVGLRTPQRFTDLVKFISDKIKFLNPDREYDFRDLTWCINPPERIKLDYDQYCADVAAEELMNALVNSTLLETRTTNQFLAVSKGNCSGPTTIRGQFSNMSLSLLDLYLGRGYNVSSIVTMTSQGMYGGTYLVEKPNLSSKRSELSQLSMYRVFEVGVIRNPGLGAPVFHMTNYLEQPVSNDLSNCMVALGELKLAALCHGEDSITIPYQGSGKGVSFQLVKLGVWKSPTDMQSWVPLSTDDPVIDRLYLSSHRGVIADNQAKWAVPTTRTDDKLRMETCFQQACKGKIQALCENPEWAPLKDNRIPSYGVLSVDLSLTVELKIKIASGFGPLITHGSGMDLYKSNHNNVYWLTIPPMKNLALGVINTLEWIPRFKVSPYLFTVPIKEAGGDCHAPTYLPAEVDGDVKLSSNLVILPGQDLQYVLATYDTSRVEHAVVYYVYSPSRSFSYFYPFRLPIKGVPIELQVECFTWDQKLWCRHFCVLADSESGGHITHSGMVGMGVSCTVTREDGTNRR | 130 |  | 
7 | HcΔ18 (other) MGSRIVINREHLMIDRPYVLLAVLFVMFLSLIGLLAIAGIRLHRAAIYTAEIHKSLSTNLDVTNSIEHQVKDVLTPLFKIIGDEVGLRTPQRFTDLVKFISDKIKFLNPDREYDFRDLTWCINPPERIKLDYDQYCADVAAEELMNALVNSTLLETRTTNQFLAVSKGNCSGPTTIRGQFSNMSLSLLDLYLGRGYNVSSIVTMTSQGMYGGTYLVEKPNLSSKRSELSQLSMYRVFEVGVIRNPGLGAPVFHMTNYLEQPVSNDLSNCMVALGELKLAALCHGEDSITIPYQGSGKGVSFQLVKLGVWKSPTDMQSWVPLSTDDPVIDRLYLSSHRGVIADNQAKWAVPTTRTDDKLRMETCFQQACKGKIQALCENPEWAPLKDNRIPSYGVLSVDLSLTVELKIKIASGFGPLITHGSGMDLYKSNHNNVYWLTIPPMKNLALGVINTLEWIPRFKVSPYLFTVPIKEAGGDCHAPTYLPAEVDGDVKLSSNLVILPGQDLQYVLATYDTSRVEHAVVYYVYSPSRSFSYFYPFRLPIKGVPIELQVECFTWDQKLWCRHFCVLADSESGGHITHSGMVGMGVSCTVTREDGTNRR |  | 1e+06 | ≥ 1e+06
8 | HcΔ21 (other) MIVINREHLMIDRPYVLLAVLFVMFLSLIGLLAIAGIRLHRAAIYTAEIHKSLSTNLDVTNSIEHQVKDVLTPLFKIIGDEVGLRTPQRFTDLVKFISDKIKFLNPDREYDFRDLTWCINPPERIKLDYDQYCADVAAEELMNALVNSTLLETRTTNQFLAVSKGNCSGPTTIRGQFSNMSLSLLDLYLGRGYNVSSIVTMTSQGMYGGTYLVEKPNLSSKRSELSQLSMYRVFEVGVIRNPGLGAPVFHMTNYLEQPVSNDLSNCMVALGELKLAALCHGEDSITIPYQGSGKGVSFQLVKLGVWKSPTDMQSWVPLSTDDPVIDRLYLSSHRGVIADNQAKWAVPTTRTDDKLRMETCFQQACKGKIQALCENPEWAPLKDNRIPSYGVLSVDLSLTVELKIKIASGFGPLITHGSGMDLYKSNHNNVYWLTIPPMKNLALGVINTLEWIPRFKVSPYLFTVPIKEAGGDCHAPTYLPAEVDGDVKLSSNLVILPGQDLQYVLATYDTSRVEHAVVYYVYSPSRSFSYFYPFRLPIKGVPIELQVECFTWDQKLWCRHFCVLADSESGGHITHSGMVGMGVSCTVTREDGTNRR | 1500 |  | 

From US9862971B2 (BUNDESREPUBLIK DEUTSCHLAND, LETZTVERTRETEN DURCH DEN …, dated 2018)
